Substitutions are numbered along the chain they refer to. [ ]: non-standard residue; d: D form. Nle = CCCC[C@H](N)C(=O)O
Legend:
[1] = molecular target: T1, SASPase (GST-C27) (Homo sapiens, UniProt Q53RT3); experiment: Hydrolysis of quenched Abz/(NO2)Tyr peptide substrates by the SASPase; type: biochemical
T1 construct: made in house; host or cells: E. coli BL21 (DE3)
T1 sequence (Q53RT3 85-343): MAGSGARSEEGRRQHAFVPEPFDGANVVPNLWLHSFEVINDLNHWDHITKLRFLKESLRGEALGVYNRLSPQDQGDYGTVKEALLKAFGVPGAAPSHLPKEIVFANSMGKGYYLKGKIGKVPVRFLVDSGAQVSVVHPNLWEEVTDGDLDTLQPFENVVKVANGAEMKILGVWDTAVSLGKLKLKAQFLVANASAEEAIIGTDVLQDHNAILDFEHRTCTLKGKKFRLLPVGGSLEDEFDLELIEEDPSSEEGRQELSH
Procedure: The peptide substrate considered (SEQ ID NO: 31, SEQ ID NO: 32, SEQ ID NO: 33, SEQ ID NO: 34 or SEQ ID NO: 35) quenched using the Abz/(NO2)Tyr fluorescent system is used at 100 μM in DMSO, and then 10 μl of this stock substrate solution are added per 100 μl of 0.1 M acetate buffer, pH 5.00.
10 μg of GST-C27 (fusion protein at 1 mg/ml in PBS) are added. Incubation is carried out at 37° C. The fluorescence is read at 340/450 nm on a Biolumin plate reader at various times.

[2] = molecular target: T2, activated SASPase (SEQ ID NO: 6) (Homo sapiens, UniProt Q53RT3); experiment: Effect of retropepsin inhibitors on the caseinolytic activity of the activated SASPase; type: biochemical; settings: activated SASPase in 0.1 M acetate buffer pH 5.5 with DMSO, pre-incubated 1 hour at 4° C., Enzchek casein, 37° C., FIG. 3
T2 construct: GST (N, cleaved yes); made in house; host or cells: E. coli BL21 (DE3)
T2 sequence (Q53RT3 189-326): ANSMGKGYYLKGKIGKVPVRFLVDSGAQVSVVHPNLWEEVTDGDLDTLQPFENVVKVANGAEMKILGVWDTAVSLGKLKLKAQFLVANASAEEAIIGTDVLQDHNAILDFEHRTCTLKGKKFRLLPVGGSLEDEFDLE
Procedure: 10 μl of activated SASPase (SEQ ID NO: 6) that have been autoactivated (approximately 3 mg/ml) are added to 200 μl of 0.1 M acetate buffer, pH 5.5, containing 20 μl of DMSO with retropepsin inhibitors. A control assay is carried out under the same conditions in the absence of inhibitor.
The mixture is pre-incubated at 4° C. for 1 hour, and the substrate, casein, sold under the name Enzchek® by the company Molecular Probes, is then added in sufficient amount to obtain the concentration recommended by the supplier, the solutions having been heated to 37° C. beforehand.
The casein hydrolysis is followed by measuring the fluorescence on a Biolumin® plate reader sold by the company Molecular Probes, using the excitation/emission couple: 485/535 nm.

[3] = system: corneodesmosin; experiment: Degradation of corneodesmosin extracted from human stratum corneum; type: biochemical; settings: for % Residual corneodesmosin T24 h/T0*100 / Standardized corneodesmosin T24 h / Standardized corneodesmosin T0: stratum corneum acetone powder; for % Residual corneodesmosin T24 h/T0*100 / Standardized corneodesmosin T24 h: acetate buffer pH 5, 30° C.; for Standardized corneodesmosin T0: acetate buffer pH 5, T0
Procedure: Corneodesmosin is a marker for desquamation since it is involved in corneocyte cohesion at corneodesmosomes. The more the protein is degraded, the more significant is the detachment of the corneocytes. Corneodesmosin degradation is therefore a key step of desquamation.
The test used in this study therefore consists in following this degradation in the presence of the test substance.
Acetone powders are prepared using stripping varnish (Mehul B, Bernard D, Simonetti L, Bernard M A, Schmidt R: Identification and cloning of a new calmodulin-like protein from human epidermis. J Biol Chem 275: […], 2000), taken from the lower parts of the legs of volunteers with dry skin. Aliquot fractions of 2 mg of stratum corneum powder are introduced separately into Eppendorf tubes, and then immersed in the test solutions in a proportion of 100 μl/mg. The solutions are prepared in acetate buffer, pH 5. A control without protease is prepared in parallel in order to evaluate the natural degradation of corneodesmosin. For each test, three samples are prepared. The samples, trials and control, are incubated at 30° C., with stirring for 24 hours.
The proteins are extracted with complete Laemmli buffer. They are assayed by the Bradford method (Bio-Rad® kit). The concentration of each sample is adjusted so as to allow comparison of the samples. The polypeptides are separated by SDS-PAGE electrophoresis on a 15% acrylamide gel, and then transferred onto a PVDF membrane. Immunodetection with a solution of anti-corneodesmosin antibody used at 1/12 500 and of secondary antibody coupled to peroxidase makes it possible to visualize the corneodesmosin. The bands detected by chemiluminescence are quantified using the Quantity One® program from the company Biorad. The membranes are then stained with amido-black, and then scanned. In addition, the keratins, which are major proteins of corneocyte extracts, are quantified in order to verify the adjustment to 0.6 mg/ml of all the samples.
A positive control for degradation (+) is prepared using 5 mM of EDTA. A trial is carried out in the presence of 60 μg of activated SASPase. A negative control represents the natural degradation of corneodesmosin under the operating conditions of the test.

[4] = system: SASPase C27 (autocleavage); experiment: Autocleavage of the SASPase C27 and of its mutants (SDS-PAGE); type: biochemical, human; settings: fusion protein in 1 M acetate buffer pH 4.5, 37° C., SDS-PAGE over time
Procedure: The SASPase sequence SEQ ID NO: 5 is modified at aspartic acid No. 212, i.e. on its potential active site. To do this, two oligonucleotides are synthesized such that amino acid 212 is substituted either to alanine (mutant A/D), or to glutamic acid (mutant E/D).
The mutated recombinant proteins are produced according to the same protocol as for the wild-type form, SASPase C27; (SEQ ID NO: 4).
Each recombinant protein produced in fusion protein form is then incubated in a 1 M acetate buffer, pH 4.5, at 37° C. Samples are taken over time and are analyzed by SDS-PAGE.

[5] = system: oxidized beta-chain of insulin; experiment: Hydrolysis of the oxidized beta-chain of insulin followed by HPLC; type: biochemical
Procedure: The oxidized beta-chain of insulin (Sigma) is used as substrate. The concentration is 50 μg in 1.5 ml of 0.1 M acetate buffer, pH 5.0. 50 μl of 12 kD SASPase (SEQ ID NO: 6) (approximately 1 mg/ml) purified by gel filtration are added so as to initialize the hydrolysis. Controls without enzyme or without substrate are used. Over time (1 h to 24 h at 37° C.), HPLCs are performed in order to follow the hydrolysis. The peaks that appear rapidly correspond to the main hydrolysis sites and those that only appear after 24 h correspond to the secondary sites. The peaks are collected after they have been fractionated, and are N-terminal sequences (EDMAN sequencing, Pasteur Institute).

[6] = system: casein; experiment: Influence of pH on the proteolytic activity of SASPase (Enzchek casein substrate); type: biochemical
Procedure: 10 μl of GST-SASPase Δ 1-84 fusion proteins (approximately 3 mg/ml) obtained in example II are incubated in 200 μl of 0.1 M acetate buffer, adjusted to various pH values in the presence of the casein substrate sold under the name Enzchek® by the company Molecular Probes, and used at the concentrations recommended by the supplier.
Each assay is repeated three times.
After incubation at 37° C. for 20 hours, the fluorescence is measured on a plate reader sold under the name Biolumin® by the company Molecular Probes, using the excitation/emission couple: 485/535 nm.

EFDLELIEED (listed as Homo sapiens) [SEQ ID NO: 31]
effect of the peptide substrate on the SASPase [1]: activator effect
hydrolysis of the peptide substrate by the SASPase ([1]; 0.1 M acetate buffer pH 5.00, 10 μg GST-C27, 37° C., fluorescence 340/450 nm, FIG. 5): effectively hydrolyzed

Ac-Leu-Leu-Met-aldehyde [RP2]
kinetics for casein hydrolysis compared with the control [2]: lower than the control

O=C(O)CN(CCN(CC(=O)O)CC(=O)O)CC(=O)O [+control, EDTA, reference compound]
% Residual corneodesmosin T24 h/T0*100 ([3]; 24 hours): 84%
Standardized corneodesmosin T24 h ([3]; 24 hours): 26685
Standardized corneodesmosin T0 [3]: 31657

Ac-Leu-Leu-Nle-aldehyde (Ac-Leu-Leu-[Nle]-aldehyde) [RP3]
kinetics for casein hydrolysis compared with the control [2]: significantly higher

EFDLDLIEED (listed as Homo sapiens) [SEQ ID NO: 32]
effect of the peptide substrate on the SASPase [1]: activator effect

Ac-Leu-Val-Phe-aldehyde [RP1]
kinetics for casein hydrolysis compared with the control [2]: lower than the control

B1: GST-SASPase C27: recombinant fusion protein of glutathione S-transferase with truncated SASPase Δ 1-84 (SEQ ID NO: 4) (protein, listed as Homo Sapiens)
chain: T1 sequence (Q53RT3 85-343)
autocleavage / autoactivation [4]: autocleavage

B2: activated SASPase: truncated 12 kD activated form of the aspartic acid protease SASPase, sequence SEQ ID NO: 6 (protein, listed as Homo Sapiens)
chain: T2 sequence (Q53RT3 189-326)
percentage of residual corneodesmosin compared with the controls ([3]; 60 μg of activated SASPase, 24 hours): significant decrease
% Residual corneodesmosin T24 h/T0*100 ([3]; 24 hours): 75%
Standardized corneodesmosin T24 h ([3]; 24 hours): 24918
Standardized corneodesmosin T0 [3]: 33107
insulin-degrading activity ([5]; 0.1 M acetate buffer pH 5.0, 37° C., 1 h to 24 h): capable of degrading insulin

B3: (A/D): SASPase mutant, aspartic acid No. 212 substituted to alanine (protein, UniProt Q53RT3 191-326, looked up, variant D212A)
Retroviral-like aspartic …: SMGKGYYLKGKIGKVPVRFLVASGAQVSVVHPNLWEEVTDGDLDTLQPFENVVKVANGAEMKILGVWDTAVSLGKLKLKAQFLVANASAEEAIIGTDVLQDHNAILDFEHRTCTLKGKKFRLLPVGGSLEDEFDLE
autocleavage / autoactivation [4]: do not autoactivate

B4: (E/D): SASPase mutant, aspartic acid No. 212 substituted to glutamic acid (protein, UniProt Q53RT3 191-326, looked up, variant D212E)
Retroviral-like aspartic …: B3 Retroviral-like aspartic … with A22E
autocleavage / autoactivation [4]: do not autoactivate

B5: SASPase: novel aspartic acid protease from human keratinocytes, sequence SEQ ID NO: 5; in b201 and b239 the word covers the form tested (protein, listed as Homo Sapiens)
chain: MGSPGASLGIKKALQSEQATALPASAPAVSQPTAPAPSCLPKAGQVIPTLLREAPFSSVIAPTLLCGFLFLAWVAAEVPEESSRMAGSGARSEEGRRQHAFVPEPFDGANVVPNLWLHSFEVINDLNHWDHITKLRFLKESLRGEALGVYNRLSPQDQGDYGTVKEALLKAFGVPGAAPSHLPKEIVFANSMGKGYYLKGKIGKVPVRFLVDSGAQVSVVHPNLWEEVTDGDLDTLQPFENVVKVANGAEMKILGVWDTAVSLGKLKLKAQFLVANASAEEAIIGTDVLQDHNAILDFEHRTCTLKGKKFRLLPVGGSLEDEFDLELIEEDPSSEEGRQELSH
insulin-degrading activity after heat denaturation ([5]; heat denaturation 95° C., 10 min): abolishes its insulin-degrading activity
activity in phosphate buffer ([6]; 0.1 M phosphate buffer of pH 6 to 7.5, assays not shown): only a weak residual activity
optimal pH of enzymatic activity ([6]; GST-SASPase Δ 1-84 fusion protein, 0.1 M acetate buffer, 37° C., 20 hours, FIG. 2): 5 pH

Reference: patent US7888315B2, “Use of aspartic proteases in cosmetics and therapeutics” (L'Oreal, priority 2002, dated 2011)
